The numbers were not newly measured in article PMC10839879, which cites them from elsewhere.

For the series, the target named is RNH1 (Homo sapiens) (UniProt P13489).
Chain of UniProt P13489 (P13489 2-461): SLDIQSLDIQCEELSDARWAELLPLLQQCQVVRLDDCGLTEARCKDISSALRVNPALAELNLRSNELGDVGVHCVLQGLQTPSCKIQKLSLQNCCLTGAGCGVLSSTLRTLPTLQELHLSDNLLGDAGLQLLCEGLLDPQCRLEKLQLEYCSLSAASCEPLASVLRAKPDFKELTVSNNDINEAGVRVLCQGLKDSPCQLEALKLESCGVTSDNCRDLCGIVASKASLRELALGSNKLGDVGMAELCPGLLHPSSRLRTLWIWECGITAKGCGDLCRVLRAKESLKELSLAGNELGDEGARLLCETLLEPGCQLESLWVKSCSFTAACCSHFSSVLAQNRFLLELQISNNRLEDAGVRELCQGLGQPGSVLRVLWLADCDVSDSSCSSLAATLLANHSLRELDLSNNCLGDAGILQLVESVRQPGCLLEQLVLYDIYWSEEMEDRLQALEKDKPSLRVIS

Regarding angiogenin (from UniProt P03950), the Kd was 0.001 pM.

As usually defined, the Kd is the free concentration of one partner at which half of the binding sites on the other are occupied at equilibrium, for simple one-to-one binding.
